The values that follow come from EP4810515A1 (Shanghai Haiju Biological Technology Co., Ltd., dated 2026).

For experiment [1], the target named is T1, human GDF15 recombinant protein (ACRO, GD5-H5149) (human, UniProt Q99988 197-308).
T1 sequence (looked up): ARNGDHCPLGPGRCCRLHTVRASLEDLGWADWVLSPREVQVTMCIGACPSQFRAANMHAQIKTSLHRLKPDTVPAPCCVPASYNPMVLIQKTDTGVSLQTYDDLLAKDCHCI
Nature of the experiment: cell-based or functional assay.

The target of experiment [2] is T2, GDF15 protein (R&D, 8146-GD) (UniProt Q99988 197-308).
T2 construct: analyte of the SPR assay
T2 sequence (looked up): T1 sequence (looked up)
Nature of the experiment: SPR Biacore T200, antibody captured by anti-hFc on CM5, GDF15 as analyte, 1:1 model.

Experiment [3] addresses T3, mouse GDF15 recombinant protein (Kactus, GDF-MM215) (mouse, UniProt Q9Z0J7 189-303, limits assumed).
T3 construct: also called mGDF-15.hFc; murine GDF15; not shown: human Fc (hFc)
T3 sequence (looked up): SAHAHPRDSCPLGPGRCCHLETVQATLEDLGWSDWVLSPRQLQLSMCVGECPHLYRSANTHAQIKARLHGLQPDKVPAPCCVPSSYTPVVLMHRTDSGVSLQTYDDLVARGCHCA
Kind of experiment: ELISA, coated mGDF-15.hFc.

Experiment [4] has as its target T1, human GDF15 recombinant protein (ACRO, …). Kind of experiment: cell-based or functional assay. This is another data set of the same source.
For experiment [5], the target named is T4, cynomolgus monkey GDF15 recombinant protein (Kactus, GDF-CM215) (cynomolgus monkey, UniProt G7PWZ3 197-308, limits assumed).
T4 construct: also called cynoGDF-15.hFc; cynoGDF15; not shown: human Fc (hFc)
T4 sequence (looked up): T1 sequence (looked up) with H6R, R21H, A54E, T63M, S64N, I112V
Nature of the experiment: ELISA, coated cynoGDF-15.hFc.

In experiment [6] the target is T1, human GDF15 recombinant protein (ACRO, …). Kind of experiment: ELISA, coated hGDF-15.His.

Residue numbers refer to the chain shown, from its start.

B1: G2-H1-hz15-hIgG1(LALAGA, -K) (antibody, V domains shown)
VH: QVTLLESGGGLVQPGGSLRLSCSFSGFSLSTYGIGVGWIRQAPGKGLEWLAHIWWNNNKYFNTALKSRLTISKDTSKNTVYLQMNSVRAEDTAVYYCARMGYDIMDYWGQGTTVTVSS
VL: DIVMTQSPATLSTSPGERATLSCKASQDVNTAVAWYQQKPGQAPRFLIYSSSYRYTGVPARFSGSGSGTEFTFTISSLQSEDFAVYYCQQHYSTPWTFGGGTKVEIKR
notes: humanized from G2-CH1
Regarding B1, the “IC50, reporter gene cell strain (GFRAL/RET)” value (“IC50 … (GFRAL/RET)” for short) in experiment [1] is 0.077 nM. In experiment [2], binding was put at a Kd of 0.00923 nM, the off-rate (koff) was 0.000115 s⁻¹ and the on-rate constant (kon) came out at 1.25e+07 M⁻¹ s⁻¹.

B2: G2-H8-H1L1-hIgG1(LALAGA,-K)(gsm) (antibody, V domains shown)
VH: QITLKESGPTLVKPTQTLTLTCTFSGFSLSTYGIGVGWIRQPPGKALEWLAHIWWNDNKYYNTALKSRLTITKDTSKNQVVLTMTNMDPVDTATYYCARLAYDYVDSWGQGTLVTVSS
VL: DIVMTQTPLSLSVTPGQPASISCKSSKSLLHSEGITYLYWYLQKPGQSPQLLIYQMSNLVSGVPDRFSGSGSGTDFTLKISRVEAEDVGVYYCAQNLELPPTFGQGTKLEIKR
notes: humanized from G2-CH8-LP3; also called G2-H8-H1L1-hIgG1(gsm); G2-H8-H1L1-hIgG1 (gsm)(LALAGA,-K)
On to B2, for which, in experiment [1], the “IC50 … (GFRAL/RET)” value amounted to 0.069 nM. In experiment [2], binding was characterised by a dissociation constant (Kd) of 0.022 nM, the koff was 0.00017 s⁻¹ and the kon was found to be 7.75e+06 M⁻¹ s⁻¹.

B3: G2-H8-H2L2-hIgG1(LALAGA,-K) (antibody, V domains shown)
VH: B2 VH with I2V, T10A, A46G, T72S, L113T, V114L
VL: B2 VL with K24R, G69S
notes: humanized from G2-CH8-LP3
Consider B3, for which the “IC50 … (GFRAL/RET)” value in experiment [1] was found to be 0.053 nM. Moreover, in experiment [2], the dissociation constant Kd was 0.0143 nM, the koff stood at 0.000127 s⁻¹ and the kon turned out to be 8.9e+06 M⁻¹ s⁻¹.

B4: G2-H5-H2.2L2-hIgG1(LALAGA,-K) (antibody, V domains shown)
VH: EVQLVQSGAEVKKPGASVKVSCKASGYTFTDYNLNWVRQATGQGLEWMGDLNPYNQGIIYNQKFKGRVTLTVDKSISTAYMELSSLRSEDTAVYYCAREGRGGAWFDSWGQGTLVTVSS
VL: DIQMTQSPSSLSASVGDRVTITCKASEDIYHRLAWYQQKPGKAPKLLIYGATSLETGVPSRFSGSGSGTDYTFTISSLQPEDIATYYCQQYWSPPFTFGGGTKVEIKR
notes: humanized from G2-CH5-HP2
As for B4, the “IC50 … (GFRAL/RET)” value in experiment [1] was 0.049 nM. In experiment [2], this molecule returned an equilibrium dissociation constant (Kd) of 0.0178 nM, a koff of 0.000145 s⁻¹ and a kon of 8.11e+06 M⁻¹ s⁻¹.

B5: G2-H5-H2.2L1-hIgG1(LALAGA, -K) (antibody, V domains shown)
VH: B4 VH
VL: B4 VL with Y71F
notes: humanized from G2-CH5-HP2
As for B5, the “IC50 … (GFRAL/RET)” value in experiment [1] came out at 0.055 nM. In experiment [2], this molecule came in with a Kd of 0.0229 nM, a koff of 0.000189 s⁻¹ and an on-rate (kon) of 8.26e+06 M⁻¹ s⁻¹.

B6: G2-H5-H4.2L1-hIgG1(LALAGA,-K) (antibody, V domains shown)
VH: B4 VH with F29L, M48I, V68A, D73N
VL: B4 VL with Y71F
notes: humanized from G2-CH5-HP2
B6: the “IC50 … (GFRAL/RET)” value in experiment [1] was 0.087 nM. In experiment [2], this molecule had a Kd of 0.0442 nM, a koff of 0.000278 s⁻¹ and an on-rate constant (kon) of 6.28e+06 M⁻¹ s⁻¹.

B7: G2-H5-H1.2L3-hIgG1(LALAGA,-K) (antibody, V domains shown)
VH: B4 VH with L70M, K74T
VL: B4 VL with Y49S
notes: humanized from G2-CH5-HP2
In the case of B7, the “IC50 … (GFRAL/RET)” value in experiment [1] came to 0.069 nM. Also, in experiment [2], the Kd was found to be 0.0197 nM, the off-rate constant (koff) was found to be 0.000185 s⁻¹ and the on-rate constant (kon) came out at 9.37e+06 M⁻¹ s⁻¹.

B8: G2-H5-H1.2L4-hIgG1(LALAGA,-K) (antibody, V domains shown)
VH: B4 VH with L70M, K74T
VL: B4 VL with Y49S, V58I
notes: humanized from G2-CH5-HP2
On to B8, for which the “IC50 … (GFRAL/RET)” value in experiment [1] was 0.053 nM. In experiment [2], this molecule registered a Kd of 0.0241 nM, a koff of 0.000201 s⁻¹ and a kon of 8.36e+06 M⁻¹ s⁻¹.

B9: G2-H5-H1.2L1-hIgG1(LALAGA,-K) (antibody, V domains shown)
VH: B4 VH with L70M, K74T
VL: B4 VL with Y71F
notes: humanized from G2-CH5-HP2
For B9, the “IC50 … (GFRAL/RET)” value in experiment [1] came out at 0.036 nM. In experiment [2], this molecule registered a Kd of 0.0244 nM, a koff of 0.000169 s⁻¹ and a kon of 6.94e+06 M⁻¹ s⁻¹.

B10: G2-H5-H2.2L3-hIgG1(LALAGA,-K) (antibody, V domains shown)
VH: B4 VH
VL: B4 VL with Y49S
notes: humanized from G2-CH5-HP2
Turning to B10, the “IC50 … (GFRAL/RET)” value in experiment [1] came out at 0.048 nM. In experiment [2], this molecule yielded a dissociation constant Kd of 0.0336 nM, a koff of 0.000284 s⁻¹ and a kon of 8.46e+06 M⁻¹ s⁻¹.

B11: G2-H5-H4.2L4-hIgG1(LALAGA,-K) (antibody, V domains shown)
VH: B4 VH with F29L, M48I, V68A, D73N
VL: B4 VL with Y49S, V58I
notes: humanized from G2-CH5-HP2
On to B11, for which the “IC50 … (GFRAL/RET)” value in experiment [1] was determined as 0.081 nM. In experiment [2], this molecule returned a Kd of 0.0349 nM, a koff of 0.00026 s⁻¹ and an on-rate constant (kon) of 7.44e+06 M⁻¹ s⁻¹.

B12: G2-H5-H3.2L2-hIgG1(LALAGA,-K) (antibody, V domains shown)
VH: B4 VH with M48I, V68A
VL: B4 VL
notes: humanized from G2-CH5-HP2
Regarding B12, in experiment [1], the “IC50 … (GFRAL/RET)” value came out at 0.041 nM. In experiment [2], this molecule gave a Kd of 0.0327 nM, a koff of 0.000265 s⁻¹ and a kon of 8.1e+06 M⁻¹ s⁻¹.

B13: G2-H5-H3.2L1-hIgG1(LALAGA,-K) (antibody, V domains shown)
VH: B4 VH with M48I, V68A
VL: B4 VL with Y71F
notes: humanized from G2-CH5-HP2
Regarding B13, the “IC50 … (GFRAL/RET)” value in experiment [1] worked out at 0.068 nM. In experiment [2], the affinity, expressed as Kd, was 0.0245 nM; the dissociation rate constant (koff) amounted to 0.000173 s⁻¹; the on-rate (kon) is 7.03e+06 M⁻¹ s⁻¹.

B14: G2-H5-H2.2L4-hIgG1(LALAGA,-K) (antibody, V domains shown)
VH: B4 VH
VL: B4 VL with Y49S, V58I
notes: humanized from G2-CH5-HP2
As to B14, in experiment [1], the “IC50 … (GFRAL/RET)” value was determined as 0.048 nM. In experiment [2], the Kd came out at 0.021 nM, the koff came to 0.000231 s⁻¹ and the kon came to 1.1e+07 M⁻¹ s⁻¹.

B15: G2-H5-H3.2L4-hIgG1(LALAGA,-K) (antibody, V domains shown)
VH: B4 VH with M48I, V68A
VL: B4 VL with Y49S, V58I
notes: humanized from G2-CH5-HP2
Turning to B15, in experiment [1], the “IC50 … (GFRAL/RET)” value came to 0.039 nM. Further, in experiment [2], the equilibrium dissociation constant (Kd) stood at 0.0221 nM, the koff turned out to be 0.000175 s⁻¹ and the kon was 7.9e+06 M⁻¹ s⁻¹.

B16: G2-H5-H3.2L3-hIgG1(LALAGA,-K) (antibody, V domains shown)
VH: B4 VH with M48I, V68A
VL: B4 VL with Y49S
notes: humanized from G2-CH5-HP2
For the molecule B16, in experiment [1], the “IC50 … (GFRAL/RET)” value is 0.064 nM. In experiment [2], this molecule had a dissociation constant Kd of 0.0339 nM, an off-rate (koff) of 0.000359 s⁻¹ and a kon of 1.06e+07 M⁻¹ s⁻¹.

B17: G2-H5-H4.2L2-hIgG1(LALAGA,-K) (antibody, V domains shown)
VH: B4 VH with F29L, M48I, V68A, D73N
VL: B4 VL
notes: humanized from G2-CH5-HP2
For B17, in experiment [1], the “IC50 … (GFRAL/RET)” value stood at 0.059 nM. In experiment [2], this molecule gave a dissociation constant Kd of 0.0273 nM, a koff of 0.000239 s⁻¹ and a kon of 8.75e+06 M⁻¹ s⁻¹.

B18: G2-H5-H4.2L3-hIgG1(LALAGA,-K) (antibody, V domains shown)
VH: B4 VH with F29L, M48I, V68A, D73N
VL: B4 VL with Y49S
notes: humanized from G2-CH5-HP2
In the case of B18, the “IC50 … (GFRAL/RET)” value in experiment [1] came to 0.049 nM. In experiment [2], the Kd stood at 0.0251 nM, the koff stood at 0.000193 s⁻¹ and the kon was found to be 7.68e+06 M⁻¹ s⁻¹.

B19: G2-H5-H1.2L2-hIgG1(LALAGA,-K) (antibody, V domains shown)
VH: B4 VH with L70M, K74T
VL: B4 VL
notes: humanized from G2-CH5-HP2
Take B19: the “IC50 … (GFRAL/RET)” value in experiment [1] was found to be 0.046 nM. In experiment [2], this molecule gave a dissociation constant (Kd) of 0.0145 nM, a koff of 0.000134 s⁻¹ and an on-rate constant (kon) of 9.19e+06 M⁻¹ s⁻¹.

B20: G2-CH1 (antibody, human IgG1, kappa, V domains shown)
VH: QVTLKESGPGILQPSQTLSLTCSFSGFSLSTYGIGVGWIRQPSGKGLEWLAHIWWNNNKYFNTALKSRLTISKDTSNNQVFLKIASVDTADSATYYCARMGYDIMDYWGQGTSVTVSS
VL: DIVMTQSHKFMSTSVGDRVSITCKASQDVNTAVAWYQQKPGQSPKFLIYSSSYRYTGVPDRFTGSGSGTDFTFTISSVQAEDLAVYYCQQHYSTPWTFGGGTKLEIKR
notes: chimeric: murine variable regions on human IgG1 constant region mutant (LALAGA, -K)
In the case of B20, the EC50 worked out at 0.17 nM in experiment [3], 0.086 nM in experiment [5] and 0.00387 nM in experiment [6]. In addition, the “IC50, luciferase reporter gene cell strain (mGFRAL/RET HEK293) with hGDF15” value in experiment [4] amounted to 3.75 nM.

B21: G2-H1-hz14-hIgG1(LALAGA, -K) (antibody, V domains shown)
VH: B1 VH
VL: B20 VL with H8P, K9S, F10S, M11L, S20T, Q42K, T63S, A80P, L83F, L104V
notes: humanized from G2-CH1
For B21, the “IC50 … (GFRAL/RET)” value in experiment [1] is 0.085 nM. In experiment [2], this molecule registered a dissociation constant (Kd) of 0.0107 nM, a dissociation rate constant (koff) of 0.00015 s⁻¹ and an association rate constant (kon) of 1.4e+07 M⁻¹ s⁻¹.
